Test results published in WO2005035751A1 (dated 2005).
Positions count from the first letter of the chain named.

B1: MI3-41 (scFv)
scFv: MASMTGGQQMGQVTLKESGPGILQPSQTLSLTCSFSGFSLSTSGMGVGWIRQPSGKGLEWLAHIWRDDVKRYNPALKSRLTISKDTSSSQVFLKIASMDTADTATYYCARIYYYGPYFDVWGAGTTVTVSLAKTSRPSGGGGSGRGGSGGAGSGGGGSIEGRDIQLTQPPSFLSASLGDRVSLTCRVSQDIGSSLNWLQQDPDGTIKRLIYAISSIDSGVPKRFSGNRSESDYSLTISSLESEDFVDYYCLQYASTPPTFGGGTKLEIKRDYKDDDDKRTSRVRLHHHHHHHKK
notes: Single-chain antibody translated in wheat germ extract
B2: MI3-15 (scFv)
scFv: B1 scFv with S234F
notes: as for B1
B3: MI3-28 (scFv)
scFv: B1 scFv with A109P, R145G
notes: as for B1
B4: MI3-5 (scFv)
scFv: B1 scFv with S18T, A109T, R145G, L173F, V181A, C185R, P258S
notes: as for B1
B5: MI3-42 (scFv)
scFv: B1 scFv with M10K, R145G, I206V
notes: as for B1
B6: MI3-34 (scFv, V domains shown)
VH: QVTLKESGPGILQPSQTLSLTCSFSGFSLSTSGMGVGWIRQPSGKGLEWLAHIWQDNVKRYNPALKSRLSISKDTSSSQVFLKIASMDTADTATYYCARIYYYGPYFDVWGAWTTVTVSL
notes: as for B1
B7: MI3-26 (scFv)
scFv: MASMTGGQQMGQVTLKECGPGILQPSQTLSLTCSFSGFSLSTSGMSVGWIRQPSGKGLKWLAHIWWNDDKYYNPAPKSRLTISKDTSNNQVFLKIASVVTADTATYYCARIARISYYFDYWGQGTTLTVSSAKTSRPSGGGGSGGGGTGGVGSRGGSSIEGRDIQLTQPPSFLSASLGDRVSLTCRVSQDIGSSLNWLQQDPDGTIKRLIYAISSIDSGVPKRFSGNRSESDYSLTISSLESEDFVDYYCLQYASTPPTFGGGTKLEIKRDYKDDDDKRTSRVRLHHHHHHHKK
notes: as for B1

Target: T1, angiotensin II-biotin (UniProt P01019 25-32, biotin attached (angiotensin II-biotin; chemical structure only in Figure 3))
T1 construct: Captured through its biotin on streptavidin (Biacore chip, ELISA plate) or on NeutrAvidin resin (selection); P01019 is the human angiotensinogen precursor, and angiotensin II is only a fragment of it; also called アンジォテンシン II-ピオチン
Assay: SPR (Biacore 3000), angiotensin II-biotin on streptavidin chip

| binding result | Binder |
| --- | --- |
| binds | B1 |
| binds | B2 |
| binds | B3 |
| binds | B4 |
| binds | B5 |
| binds | B6 |
| binds | B7 |
